The first assay addresses HLA-A*0201 (Homo sapiens, UniProt P04439, D140Y/D185E/D98H/E176V/E277Q/G131W/G231S/I119V/I121R/I166T/I218V/L300P/L318F/N151K/N90K/P208A/P217A/Q86G/Q94H/R138H/R169H/T345S). The assay can be described thus: UV-ligand exchange with ELISA of stabilized MHC complexes. It counts as binding. The note with it: ELISA detecting β2m of stabilized MHC complexes. The source says: Candidate peptides for the vaccines according to the present invention were further tested for immunogenicity by in vitro priming assays. The individual peptide-MHC complexes required for these assays were produced by UV-ligand exchange, where a UV-sensitive peptide is cleaved upon UV-irradiation, and exchanged with the peptide of interest as analyzed. Only peptide candidates that can effectively bind and stabilize the peptide-receptive MHC molecules prevent dissociation of the MHC complexes. To determine the yield of the exchange reaction, an ELISA was performed based on the detection of the light chain (β2m) of stabilized MHC complexes. The assay was performed as generally described in Rodenko et al. (Rodenko B, Toebes M, Hadrup S R, van Esch W J, Molenaar A M, Schumacher T N, Ovaa H. Generation of peptide-MHC class I complexes through UV-mediated ligand exchange. Nat Protoc. 2006; 1(3):1120-32.).
96 well MAXISorp plates (NUNC) were coated over night with 2 ug/ml streptavidin in PBS at room temperature, washed 4× and blocked for 30 min at 37° C. in 2% BSA containing blocking buffer. Refolded HLA-A*0201/MLA-001 monomers served as standards, covering the range of 8-500 ng/ml. Peptide-MHC monomers of the UV-exchange reaction were diluted 100 fold in blocking buffer. Samples were incubated for 1 h at 37° C., washed four times, incubated with 2 ug/ml HRP conjugated anti-β2m for 1 h at 37° C., washed again and detected with TMB solution that is stopped with […]. Absorption was measured at 450 nm.
A general note: ELISA stands for enzyme-linked immunosorbent assay.
For the substance “RLLJAAENFL (RLLAAENFL; listed as Homo sapiens) [SEQ ID NO 49]”, the “Average exchange yield in %” value stood at 47%.

The same assay, now with this note: class symbol.
As to “SLLAQNTSWLL (listed as Homo sapiens) [SEQ ID NO 74]”, the Exchange yield result is on record as “+++ (50%-70%, +++)”.

Take “GLTDNIHLV (listed as Homo sapiens) [SEQ ID NO 40]”: the Exchange yield result was “+++ (50%-70%, +++)”.

For the substance “TLISRLPAV (listed as Homo sapiens) [SEQ ID NO 61]”, the Exchange yield entry is “++++ (>70 = ++++)”.

With “SLWGGDVVL (listed as Homo sapiens) [SEQ ID NO 42]”, the Exchange yield entry is listed as “+++ (50%-70%, +++)”.

Take “ILMGTELTQV (listed as Homo sapiens) [SEQ ID NO 84]”: the Exchange yield result was “++ (20%-49% = ++)”.

Turning to “HLLEDIAHV (listed as Homo sapiens) [SEQ ID NO 92]”, the Exchange yield entry is reported as “++ (20%-49% = ++)”.

Turning to “YLAPFLRNV (listed as Homo sapiens) [SEQ ID NO 51]”, the Exchange yield entry is on record as “+++ (50%-70%, +++)”.

Take “ALYGRLEVV (listed as Homo sapiens) [SEQ ID NO 81]”: the Exchange yield result is “++++ (>70 = ++++)”.

Turning to “ALMDKEGLTAL (listed as Homo sapiens) [SEQ ID NO 9]”, the Exchange yield entry is reported as “++++ (>70 = ++++)”.

Consider “KVLEILHRV (listed as Homo sapiens) [SEQ ID NO 65]”, for which the Exchange yield entry is listed as “+++ (50%-70%, +++)”.

On to “ILFEINPKL (listed as Homo sapiens) [SEQ ID NO 1]”, for which the Exchange yield entry is on record as “++++ (>70 = ++++)”.

Consider “VLAPLFVYL (listed as Homo sapiens) [SEQ ID NO 37]”, for which the Exchange yield result is recorded as “+++ (50%-70%, +++)”.

Consider “AVVEFLTSV (listed as Homo sapiens) [SEQ ID NO 19]”, for which the Exchange yield result was “+++ (50%-70%, +++)”.

For the substance “KLLTEVHAA (listed as Homo sapiens) [SEQ ID NO 72]”, the Exchange yield result was “+++ (50%-70%, +++)”.

As for “ALLRTVVSV (listed as Homo sapiens) [SEQ ID NO 33]”, the Exchange yield entry is given as “++++ (>70 = ++++)”.

Take “SISDVIAQV (listed as Homo sapiens) [SEQ ID NO 28]”: the Exchange yield result is reported as “+++ (50%-70%, +++)”.

Regarding “SLIDADPYL (listed as Homo sapiens) [SEQ ID NO 58]”, the Exchange yield entry is recorded as “+++ (50%-70%, +++)”.

Consider “GLIEIISNA (listed as Homo sapiens) [SEQ ID NO 48]”, for which the Exchange yield result is “+++ (50%-70%, +++)”.

With “SILTIEDGIFEV (listed as Homo sapiens) [SEQ ID NO 41]”, the Exchange yield entry is reported as “++ (20%-49% = ++)”.

Turning to “SLFGNSGILENV (listed as Homo sapiens) [SEQ ID NO 80]”, the Exchange yield result is “+++ (50%-70%, +++)”.

“TLYPHTS (TLYPHTSQV; listed as Homo sapiens) [SEQ ID NO 18]”: the Exchange yield result is given as “++ (20%-49% = ++)”.

As for “FLVDGSWSV (listed as Homo sapiens) [SEQ ID NO 24]”, the Exchange yield result is on record as “+++ (50%-70%, +++)”.

As to “YLIHFPVSV (listed as Homo sapiens) [SEQ ID NO 13]”, the Exchange yield entry is on record as “+ (<20% = +)”.

As for “KLAVALLAA (listed as Homo sapiens) [SEQ ID NO 15]”, the Exchange yield entry was “++ (20%-49% = ++)”.

For “VLFPNLKTV (listed as Homo sapiens) [SEQ ID NO 35]”, the Exchange yield entry is listed as “++ (20%-49% = ++)”.

For the substance “TVAEVIQS V (TVAEVIQSV; listed as Homo sapiens) [SEQ ID NO 27]”, the Exchange yield result is on record as “+++ (50%-70%, +++)”.

Regarding “TVIGFLLPFA (listed as Homo sapiens) [SEQ ID NO 16]”, the Exchange yield result is reported as “++++ (>70 = ++++)”.

For the substance “RLLJAAENFL (RLLAAENFL; listed as Homo sapiens) [SEQ ID NO 49]”, the Exchange yield result is on record as “++ (20%-49% = ++)”.

In the case of “KLFGEKTYL (listed as Homo sapiens) [SEQ ID NO 26]”, the Exchange yield result is “++ (20%-49% = ++)”.

“AMFENFVSV (listed as Homo sapiens) [SEQ ID NO 91]”: the Exchange yield result was “+++ (50%-70%, +++)”.

On to “GLAEDIDKGEV (listed as Homo sapiens) [SEQ ID NO 57]”, for which the Exchange yield entry is recorded as “++ (20%-49% = ++)”.

In the case of “RLLGPSAAADILQL (listed as Homo sapiens) [SEQ ID NO 17]”, the Exchange yield entry was “++ (20%-49% = ++)”.

As to “SMSGYDQVL (listed as Homo sapiens) [SEQ ID NO 8]”, the Exchange yield result was “++ (20%-49% = ++)”.

On to “NLLAEIHGV (listed as Homo sapiens) [SEQ ID NO 44]”, for which the Exchange yield result is “++++ (>70 = ++++)”.

“SLYDNQITTV (listed as Homo sapiens) [SEQ ID NO 78]”: the Exchange yield entry is recorded as “++ (20%-49% = ++)”.

Consider “RVLPPSALQSV (listed as Homo sapiens) [SEQ ID NO 87]”, for which the Exchange yield result is “+++ (50%-70%, +++)”.

On to “KLDETNNTL (listed as Homo sapiens) [SEQ ID NO 6]”, for which the Exchange yield result is given as “+++ (50%-70%, +++)”.

Take “TLWYRAPEV (listed as Homo sapiens) [SEQ ID NO 7]”: the Exchange yield entry is listed as “++ (20%-49% = ++)”.

In the case of “YVYQNNIYL (listed as Homo sapiens) [SEQ ID NO 68]”, the Exchange yield result is “++ (20%-49% = ++)”.

As to “KILEDVVGV (listed as Homo sapiens) [SEQ ID NO 70]”, the Exchange yield entry is reported as “+++ (50%-70%, +++)”.

For the substance “SLVAVELEKV (listed as Homo sapiens) [SEQ ID NO 90]”, the Exchange yield result was “+++ (50%-70%, +++)”.

Turning to “AIMGFIGFFV (listed as Homo sapiens) [SEQ ID NO 45]”, the Exchange yield result is reported as “+ (<20% = +)”.

Regarding “ILFPDIIARA (listed as Homo sapiens) [SEQ ID NO 62]”, the Exchange yield entry is listed as “++++ (>70 = ++++)”.

On to “TLSSIKVEV (listed as Homo sapiens) [SEQ ID NO 5]”, for which the Exchange yield result is on record as “+++ (50%-70%, +++)”.

As for “AMLAVLHTV (listed as Homo sapiens) [SEQ ID NO 64]”, the Exchange yield result is recorded as “++ (20%-49% = ++)”.

As to “ALYDSVILL (listed as Homo sapiens) [SEQ ID NO 75]”, the Exchange yield result is “++ (20%-49% = ++)”.

For “VVDKTLLLV (listed as Homo sapiens) [SEQ ID NO 60]”, the Exchange yield result is recorded as “++ (20%-49% = ++)”.

With “SLAPAGVIRV (listed as Homo sapiens) [SEQ ID NO 79]”, the Exchange yield entry is “+++ (50%-70%, +++)”.

Turning to “FLLDGSANV (listed as Homo sapiens) [SEQ ID NO 73]”, the Exchange yield result is given as “++++ (>70 = ++++)”.

For “RLLDSVSRL (listed as Homo sapiens) [SEQ ID NO 39]”, the Exchange yield entry is “+++ (50%-70%, +++)”.

Turning to “AMATESILHFA (listed as Homo sapiens) [SEQ ID NO 86]”, the Exchange yield result is given as “+++ (50%-70%, +++)”.

For the substance “NLIEKSIYL (listed as Homo sapiens) [SEQ ID NO 4]”, the Exchange yield result is listed as “++ (20%-49% = ++)”.

Turning to “SLAGDVALQQL (listed as Homo sapiens) [SEQ ID NO 63]”, the Exchange yield entry is “++++ (>70 = ++++)”.

Consider “KLSWDLIYL (listed as Homo sapiens) [SEQ ID NO 32]”, for which the Exchange yield result is given as “+++ (50%-70%, +++)”.

As to “SLLPVDIRQYL (listed as Homo sapiens) [SEQ ID NO 50]”, the Exchange yield entry is “+++ (50%-70%, +++)”.

With “GVLENIFGV (listed as Homo sapiens) [SEQ ID NO 47]”, the Exchange yield entry was “++++ (>70 = ++++)”.

Regarding “GLYPDAFAPV (listed as Homo sapiens) [SEQ ID NO 25]”, the Exchange yield entry is listed as “+++ (50%-70%, +++)”.

With “ILVSWLPRL (listed as Homo sapiens) [SEQ ID NO 59]”, the Exchange yield entry was “++++ (>70 = ++++)”.

In the case of “SLLESNKDLLL (listed as Homo sapiens) [SEQ ID NO 88]”, the Exchange yield result is listed as “+++ (50%-70%, +++)”.

For “ALVDHTPYL (listed as Homo sapiens) [SEQ ID NO 20]”, the Exchange yield result is “++ (20%-49% = ++)”.

Consider “ALANQKLYSV (listed as Homo sapiens) [SEQ ID NO 83]”, for which the Exchange yield entry is reported as “+++ (50%-70%, +++)”.

With “ILQDRLNQV (listed as Homo sapiens) [SEQ ID NO 67]”, the Exchange yield result is “++ (20%-49% = ++)”.

As for “FLHHLEIEL (listed as Homo sapiens) [SEQ ID NO 23]”, the Exchange yield result is on record as “+++ (50%-70%, +++)”.

On to “AIDGNNHEV (listed as Homo sapiens) [SEQ ID NO 31]”, for which the Exchange yield entry was “++ (20%-49% = ++)”.

As for “YLPHAPPFA (listed as Homo sapiens) [SEQ ID NO 53]”, the Exchange yield entry was “+++ (50%-70%, +++)”.

Consider “ALDENLHQL (listed as Homo sapiens) [SEQ ID NO 3]”, for which the Exchange yield entry is listed as “++ (20%-49% = ++)”.

For the substance “TLTNIIHNL (listed as Homo sapiens) [SEQ ID NO 46]”, the Exchange yield result is “+++ (50%-70%, +++)”.

Consider “SLIEDLILL (listed as Homo sapiens) [SEQ ID NO 12]”, for which the Exchange yield entry was “++ (20%-49% = ++)”.

The values are drawn from patent publication US10487116B2, “Immunotherapy against several tumors, such as lung cancer, including NSCLC” (IMMATICS BIOTECHNOLOGIES GMBH, priority 2013, dated 2019).
